# According to publication PMC5655542:
# B1: recombinant human IL-33, untreated (reduced, active form) (ligand)
# chain: MKPKMKYSTNKISTAKWKNTASKALCFKLGKSQQKAKEVCPMYFMKLRSGLMIKKEACYFRRETTKRPSLKTGRKHKRHLVLAACQQQSTVECFAFGISGVQKYTRALHDSSITGISPITEYLASLSTYNDQSITFALEDESYEIYVEDLKKDEKKDKVLLSYYESQHPSNESGDGVDGKMLMVTLSPTKDFWLHANNKEHSVELHKCEKPLPDQAFFVLHNMHSNCVSFECKTDPGVFIGVKDNHLALIKVDSSENLCTENILFKLSET
# Target: H. polygyrus Alarmin Release Inhibitor (HpARI), recombinant mature 6-His and Myc-tagged protein (Heligmosomoides polygyrus)
# Sequence (A0A3P7XL18 63-297): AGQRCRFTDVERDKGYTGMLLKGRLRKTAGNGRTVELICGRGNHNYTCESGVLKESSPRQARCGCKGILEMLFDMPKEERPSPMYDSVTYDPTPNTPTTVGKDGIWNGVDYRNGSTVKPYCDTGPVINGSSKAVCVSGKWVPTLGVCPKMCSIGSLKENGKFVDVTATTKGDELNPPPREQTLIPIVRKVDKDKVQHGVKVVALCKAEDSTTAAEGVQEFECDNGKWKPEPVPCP
# Assay: SPR; BIAcore T200; HpARI captured via its 6-His tag on a Ni2+-NTA chip to 400 RU; cytokine injected (mIL-33 6.2-167 nM, hIL-33 0.062-1.67 μM); 25°C; 10 mM NaH2PO4 pH 7.5, 150 mM NaCl, 50 μM EDTA, 0.05% surfactant P20; single kinetic titration, global 1:1 fit
binder,measurement,value
B1,Kd,260 nM
same,stoichiometry N,1
